The text below walks through data of article PMC2964155 (Virology, 2010).

Several values for one entry are separate records, joined by “and”; a condition that tells them apart may be missing. Identical values can stand only once.

In series [1] the target is Hepatitis B Virus (HBV) capsid (core) protein Cp183, adyw wildtype (Hepatitis B Virus, adyw). Description: negative-stain electron microscopy.
In series [2] the target is Hepatitis B Virus (HBV) capsid protein Cp183-EEE (S155E/S162E/S170E) (Hepatitis B Virus, adyw). Description: negative-stain electron microscopy.
Series [3] concerns the molecule itself. Description: SEC-MALS. On the technique in general: In gel filtration, larger molecules generally elute earlier.

For orientation: stoichiometry N means the number of molecules, sites or subunits per partner or assembly.

For “Hepatitis B Virus (HBV) capsid (core) protein Cp183, adyw wildtype (natural protein)”, in series [1], the stoichiometry N is 240 and 180.

Consider “Hepatitis B Virus (HBV) capsid protein Cp183-EEE (S155E/S162E/S170E) (natural protein)”, for which the stoichiometry N in series [2] is 240 and 180.

B1: Brome Mosaic Virus (BMV) capsid protein (natural protein)
chain: MSTSGTGKMTRAQRRAAARRNRWTARVQPVIVEPLAAGQGKAIKAIAGYSISKWEASSDAITAKATNAMSITLPHELSSEKNKELKVGRVLLWLGLLPSVAGRIKACVAEKQAQAEAAFQVALAVADSSKEVVAAMYTDAFRGATLGDLLNLQIYLYASEAVPAKAVVVHLEVEHVRPTFDDFFTPVYR
With B1, in series [3], the “stoichiometry N” value was found to be 180.
